These results are taken from paper doi:10.1101/2021.04.25.441314.

Like-named read-outs stand apart in the source and are kept apart here. Bounds are passed on as bounds.

The target of data set [1] is T1, Hfq wt (Escherichia coli, UniProt P0A6X3 1-102). Put plainly: competition.
Data set [2] addresses T1, Hfq wt. Put plainly: competition. The source holds these as a separate data set.
For data set [3], the target named is Hfq K56A (proximal face) (Escherichia coli, UniProt P0A6X3 1-102, K56A). Put plainly: filter binding.
The target in data set [4] is T2, Hfq R16A (rim) (Escherichia coli, UniProt P0A6X3 1-102, R16A). Description: filter binding.
Data set [5] concerns the target T1, Hfq wt. Description: filter binding.
Data set [6] has as its target T3, Hfq Y25D (distal face) (Escherichia coli, UniProt P0A6X3 1-102, Y25D). Put plainly: filter binding.
The target of data set [7] is T3, Hfq Y25D (distal face). Description: filter binding. The source holds these as a separate data set.
Data set [8] concerns the target T1, Hfq wt. Put plainly: filter binding. This is another data set of the same source.
The target in data set [9] is T2, Hfq R16A (rim). Description: filter binding. The source holds these as a separate data set.
In data set [10] the target is T1, Hfq wt. Put plainly: filter binding. The source holds these as a separate data set.
Data set [11] concerns the target T3, Hfq Y25D (distal face). Put plainly: filter binding. The source holds these as a separate data set.
Data set [12] concerns the target T2, Hfq R16A (rim). Put plainly: filter binding. This is another data set of the same source.
The target of data set [13] is T1, Hfq wt. Description: filter binding. This is another data set of the same source.
The target of data set [14] is T2, Hfq R16A (rim). Put plainly: filter binding. This is another data set of the same source.
In data set [15] the target is T3, Hfq Y25D (distal face). Put plainly: filter binding. This is another data set of the same source.
Data set [16] has as its target T3, Hfq Y25D (distal face). Put plainly: filter binding. This is another data set of the same source.
Data set [17] has as its target T1, Hfq wt. Put plainly: filter binding. The source holds these as a separate data set.
For data set [18], the target named is T2, Hfq R16A (rim). Put plainly: filter binding. The source holds these as a separate data set.
Data set [19] addresses T1, Hfq wt. Put plainly: filter binding. This is another data set of the same source.
The target in data set [20] is T3, Hfq Y25D (distal face). Put plainly: EMSA.

B1: AgvB (structured_RNA)
RNA: GGCGAUAACACAACAAUAUCAGUAUCUCAUGCUAUUGCCCGAACCCAUUCGGGCAUUUUU
In general, IC50 refers to the concentration at which inhibition is half-maximal. Read a low IC50 as greater potency in that assay. In general, Kd refers to the free concentration of one partner at which half of the binding sites on the other are occupied at equilibrium, for simple one-to-one binding. Read a low Kd as tighter binding. On to B1, for which the half-inhibitory concentration (IC50) in [1] stood at 3.2 ± 1.4 nM; in data set [2], 9.9 ± 2.7 nM. In addition, the Kd in [3] stood at 27.2 ± 2.4 nM; in data set [4], 2.7 ± 0.12 nM; in data set [5], 0.38 ± 0.06 nM; in [6], 0.13 ± 0.003 nM.

B2: GcvB (structured_RNA)
RNA: GACUUCCUGAGCCGGAACGAAAAGUUUUAUCGGAAUGCGUGUUCUGGUGAACUUUUGGCUUACGGUUGUGAUGUUGUGUUGUUGUGUUUGCAAUUGGUCUGCGAUUCAGACCAUGGUAGCAAAGCUACCUUUUUUCACUUCCUGUACAUUUACCCUGUCUGUCCAUAGUGAUUAAUGUAGCACCGCCUAAUUGCGGUGCUUUUUUU
For the molecule B2, the Kd in data set [7] and in data set [8] was under 1 nM each time. Besides, the IC50 in [2] turned out to be 23 ± 5.2 nM. Besides, in [9], the binding signal amounted to 30 fold weaker than wt Hfq.

B3: AgvB-U0 (structured_RNA)
RNA: GGCGAUAACACAACAAUAUCAGUAUCUCAUGCUAUUGCCCGAACCCAUUCGGGCA
Regarding B3, the Kd in data set [10] amounted to 1.75 ± 0.6 nM; in data set [11], 21 ± 8 nM; in data set [12], 3.9 ± 0.76 nM.

B4: 3'ETSleuZ (structured_RNA)
RNA: GGCCCGGAUGGUGGAAUCGGUAGACACAAGGGAUUUAAAAUCCCUCGGCGUUCGCGCUGUGCGGGUUCAAGUCCCGCUCCGGGUACCAUGGGAAAGAUAAGAAUAAAAUCAAAGCAAUAAGCAGUGUCGUGAAACCACCUUCGGGUGGUUUUUUU
Turning to B4, the Kd in data set [13] turned out to be 0.22 ± 0.008 nM; in data set [15] it was 0.34 ± 0.18 nM. Further, the IC50 is 2.8 ± 0.35 nM in data set [1] and 39 ± 7.3 nM in data set [2]. Moreover, the binding result in [14] is on record as “binds”.

B5: AgvB-U9 (structured_RNA)
RNA: GGCGAUAACACAACAAUAUCAGUAUCUCAUGCUAUUGCCCGAACCCAUUCGGGCAUUUUUUUUU
B5: the Kd was determined as 0.12 ± 0.016 nM in [16], 0.18 ± 0.02 nM in [17] and 0.19 ± 0.02 nM in data set [18].

B6: 3'ETSleuZ-U4 (structured_RNA)
RNA: GGCCCGGAUGGUGGAAUCGGUAGACACAAGGGAUUUAAAAUCCCUCGGCGUUCGCGCUGUGCGGGUUCAAGUCCCGCUCCGGGUACCAUGGGAAAGAUAAGAAUAAAAUCAAAGCAAUAAGCAGUGUCGUGAAACCACCUUCGGGUGGUUUU
Consider B6, for which the binding result in [19] is “binds”.

B7: RybB (structured_RNA)
RNA: GGCCACUGCUUUUCUUUGAUGUCCCCAUUUUGUGGAGCCCAUCAACCCCGCCAUUUCGGUUCAAGGUUGAUGGGUUUUUU
On to B7, for which the binding result in [20] is “binds”.
